Measurements published in paper PMC3961674, “Novel Ubiquitin-derived High Affinity Binding Proteins with Tumor Targeting Properties*” (The Journal of Biological Chemistry, 2014).

Target: 77405-MSA (77405 fused to mouse serum albumin) (human | mouse, UniProt P0CG48 1-76; P0CG48 1-76, Gln-2 to Arg | Phe-4 to Trp | Lys-6 to His | Gln-62 to Asn | Lys-63 to Pro | …)
Assay: ELISA; 67B89 target or 6789 off-target coated on Medisorp 96-well plates; variant in serial dilutions, 1 h; detection with anti-Ubi-Fab-POD; apparent KD by hyperbolic fit
Conditions: both partners purified

B1: 67B89 (ED-B domain of fibronectin flanked by its N-terminal domains 6 and 7 and C-terminal domains 8 and 9) (domain or fragment)
chain: not shown
notes: fibronectin, UniProt P02751 isoform 7, residues 1080-1541 (domains 6, 7, ED-B, 8, 9); numbers count on: isoform 7; tag-free, from pET28a; gene synthesis; also called 67B89 target; ED-B target; source: E. coli HMS174 (DE3), purified (Q-Sepharose FF, ammonium sulfate precipitation, Phenyl HP, Q Sepharose HP)
Kd: 0.58 nM
